In assay [1] the target is TrkA endogenously expressed in PC12 cells (UniProt P35739). As to the kind of experiment: cell-based or functional assay.
The next assay deals with TrkAK538A. As to the kind of experiment: cell-based or functional assay.

Sequence of TrkA endogenously expressed in PC12 cells (P35739 33-799 limits assumed): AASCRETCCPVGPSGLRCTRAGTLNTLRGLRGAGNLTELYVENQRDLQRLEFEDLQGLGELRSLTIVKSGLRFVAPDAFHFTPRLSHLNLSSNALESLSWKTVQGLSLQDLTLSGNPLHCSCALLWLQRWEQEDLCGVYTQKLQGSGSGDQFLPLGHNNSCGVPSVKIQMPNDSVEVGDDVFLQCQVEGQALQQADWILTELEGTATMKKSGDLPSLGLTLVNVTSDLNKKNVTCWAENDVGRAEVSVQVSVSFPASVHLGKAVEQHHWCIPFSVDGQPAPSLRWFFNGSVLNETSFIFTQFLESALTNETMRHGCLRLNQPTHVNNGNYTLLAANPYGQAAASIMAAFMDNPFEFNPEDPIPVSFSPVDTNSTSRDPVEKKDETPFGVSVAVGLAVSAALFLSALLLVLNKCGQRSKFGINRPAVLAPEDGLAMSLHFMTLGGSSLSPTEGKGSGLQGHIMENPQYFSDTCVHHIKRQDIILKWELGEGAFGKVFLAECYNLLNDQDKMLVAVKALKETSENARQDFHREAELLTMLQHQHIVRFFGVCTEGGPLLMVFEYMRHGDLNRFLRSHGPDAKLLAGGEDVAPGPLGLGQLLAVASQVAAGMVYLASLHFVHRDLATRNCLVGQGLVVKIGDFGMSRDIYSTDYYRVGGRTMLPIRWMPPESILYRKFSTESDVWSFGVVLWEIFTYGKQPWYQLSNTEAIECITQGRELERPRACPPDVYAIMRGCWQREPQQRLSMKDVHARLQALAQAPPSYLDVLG

“p75^ICD-YFP (from UniProt P08138 273-427) (receptor)” showed a neurite outgrowth of PC12 cells overexpressing the construct, 100 ng/ml NGF, 5 days in assay [1] of 60%. In the assay with TrkAK538A, this substance registered a neurite outgrowth of PC12 cells co-expressing p75^ICD and TrkAK538A after NGF treatment of 10 to 40 µm.

The record behind these values is patent publication US20150344535A1, “NEUROTROPHIN-TYROSINE KINASE RECEPTOR SIGNALING” (THE UNIVERSITY OF QUEENSLAND, priority 2012, published 2015).
